From patent US20250205190A1, “NUTRITIONAL COMPOSITION” (N.V. NUTRICIA, priority 2022, published 2025)

Key:
Experiment in all cases: i-screen in vitro colon microbiota model, fermentation of infant faecal pool, 16S rRNA sequencing
Assay type in all cases: cell-based
Conditions in all cases: t = 24 hours anaerobic fermentation, SIEM medium, 37° C., triplicate, ingredient conc. per Table 1
Bacteroidaceae = system: Bacteroidaceae
Experimental: (§1) In an in vitro colon microbiota model, i-screen™ (TNO, Zeist, Netherlands), the effect of infant milk formula ingredients on the anaerobic fermentation of infant microbiota was assessed.
(§2) The in vitro microbiota model mimics colonic conditions. Before a consumed ingredient reaches the colon in a human, already a part of the digestion/absorption has taken place in the gastrointestinal tract preceding the colon. For each ingredient the degree of digestion/absorption before reaching the colon varies and this was taken into account when selecting the ingredient concentrations to be tested (see Table 1).
(§3) The infant faecal pool consisted of samples obtained from faeces of 5 European infants aged 3.5-8.5 months. The samples were thawed, homogenized, aliquoted and stored at −80° C. till the start of the i-screen assay run.
(§4) • Before starting the fermentation with the test ingredients. The infant fecal pool was incubated in an anaerobic flask for 4 hours in SIEM (simulated ileal environment media) medium (pH 5.8) under anaerobic conditions (37° C.; 300 rpm). Subsequently this SIEM medium with feces was homogenized and distributed into a 96 w-plate. • The test ingredients were pre-diluted in a higher concentration in fresh SIEM medium and added to the existing medium in the 96 wells plate. For milk fat the addition method was slightly adapted, milk fat was added to fresh SIEM medium at 45° C., subsequently thoroughly homogenized, followed by addition to the wells in the 96 w plate. • The i-screen experiment included an untreated control (microbiota only), an positive control (Inulin, Raftiline ST), blanks (SIEM medium only) and technical controls (internal controls for DNA isolation and sequencing). • Each test condition was conducted in triplicate. • After 24 hours of fermentation in SIEM medium under anaerobic conditions at 37° C., samples were collected for DNA analyses. […]
(§5) Changes in the microbiota composition were analyzed by using 16S rDNA amplicon sequencing. […] Amplicon quality and size were analyzed on a Fragment Analyzer (Advanced Analytical Technologies, Inc.). […]

Bifidobacteriaceae = system: Bifidobacteriaceae
Experimental: as §1, §2, §3, §4, §5

Enterobacteriaceae = system: Enterobacteriaceae
Experimental: as §1, §2, §3, §4, §5

B1: Lactoferrin (protein, UniProt P24627 20-708, looked up)
Lactotransferrin: APRKNVRWCTISQPEWFKCRRWQWRMKKLGAPSITCVRRAFALECIRAIAEKKADAVTLDGGMVFEAGRDPYKLRPVAAEIYGTKESPQTHYYAVAVVKKGSNFQLDQLQGRKSCHTGLGRSAGWIIPMGILRPYLSWTESLEPLQGAVAKFFSASCVPCIDRQAYPNLCQLCKGEGENQCACSSREPYFGYSGAFKCLQDGAGDVAFVKETTVFENLPEKADRDQYELLCLNNSRAPVDAFKECHLAQVPSHAVVARSVDGKEDLIWKLLSKAQEKFGKNKSRSFQLFGSPPGQRDLLFKDSALGFLRIPSKVDSALYLGSRYLTTLKNLRETAEEVKARYTRVVWCAVGPEEQKKCQQWSQQSGQNVTCATASTTDDCIVLVLKGEADALNLDGGYIYTAGKCGLVPVLAENRKSSKHSSLDCVLRPTEGYLAVAVVKKANEGLTWNSLKDKKSCHTAVDRTAGWNIPMGLIVNQTGSCAFDEFFSQSCAPGADPKSRLCALCAGDDQGLDKCVPNSKEKYYGYTGAFRCLAEDVGDVAFVKNDTVWENTNGESTADWAKNLNREDFRLLCLDGTRKPVTEAQSCHLAVAPNHAVVSRSDRAAHVKQVLLHQQALFGKNGKNCPDKFCLFKSETKNLLFNDNTECLAKLGGRPTYEEYLGTEYVTAIANLKKCSTSPLLEACAFLTR
notes: Friesland Campina, Vivinal Lactoferrin, comprises 96 wt. % lactoferrin; 2 mg/ml in well
Average relative abundance (%) [st. dev] Bacteroidaceae (Bacteroidaceae): 19.81 (0.48) % | Average relative abundance (%) [st. dev] Bifidobacteriaceae (Bifidobacteriaceae): 9.39 (1.50) % | Average relative abundance (%) [st. dev] Enterobacteriaceae (Enterobacteriaceae): 41.73 (1.64) %
